Assay results: patent US20220098307A1 (WUHAN YZY BIOPHARMA, published 2022)
Changes are numbered by the printed parent chain. Names may count otherwise.

B1: M1IC-G2 (bispecific antibody)
chain: not shown
heavy: EVKLDETGGGLVQPGRPMKLSCVASGFTFSDYWMNWVRQSPEKGLEWVAQIRNKPYNYETYYSDSVKGRFTISRDDSKSSVYLQMNNLRVEDMGIYYCTGSYYGMDYWGQGTSVTVSSASTKGPSVFPLAPSSKSTSGGTAALGCLVKDYFPEPVTVSWNSGALTSGVHTFPAVLQSSGLYSLSSVVTVPSSSLGTQTYICNVNHKPSNTKVDKKVEPKSCDKTHTCPPCPAPPVAGPSVFLFPPKPKDTLMISRTPEVTCVVVDVSHEDPEVQFNWYVDGVEVHNAKTKPREEQFNSTFRVVSVLTVVHQDWLNGKEYKCKVSNKGLPAPIEKTISKTKGQPREPQVYTLPPCRDELTKNQVSLWCLVKGFYPSDIAVEWESNGQPENNYKTTPPVLDSDGSFFLYSKLTVDKSRWQQGNVFSCSVMHEALHNHYTQKSLSLSPGK
light: DVVMTQTPLSLPVSLGDQASISCRSSQSLVHSNGNTYLRWYLQKPGQSPKVLIYKVSNRFSGVPDRFSGSGSGTDFTLKISRVEAEDLGVYFCSQSTHVPWTFGGGTKLEIKRTVAAPSVFIFPPSDEQLKSGTASVVCLLNNFYPREAKVQWKVDNALQSGNSQESVTEQDSKDSTYSLSSTLTLSKADYEKHKVYACEVTHQGLSSPVTKSFNRGEC
notes: structure 1 isotype control; CH2 G2CH2
B2: M1IC-WT (bispecific antibody)
chain: not shown
heavy: not shown
light: B1 light
notes: structure 1 isotype control; CH2 WT; also called MlIC-WT
B3: M1IC-FES (bispecific antibody)
chain: not shown
heavy: EVKLDETGGGLVQPGRPMKLSCVASGFTFSDYWMNWVRQSPEKGLEWVAQIRNKPYNYETYYSDSVKGRFTISRDDSKSSVYLQMNNLRVEDMGIYYCTGSYYGMDYWGQGTSVTVSSASTKGPSVFPLAPSSKSTSGGTAALGCLVKDYFPEPVTVSWNSGALTSGVHTFPAVLQSSGLYSLSSVVTVPSSSLGTQTYICNVNHKPSNTKVDKKVEPKSCDKTHTCPPCPAPEFEGGPSVFLFPPKPKDTLMISRTPEVTCVVVDVSHEDPEVKFNWYVDGVEVHNAKTKPREEQYNSTYRVVSVLTVLHQDWLNGKEYKCKVSNKALPASIEKTISKAKGQPREPQVYTLPPCRDELTKNQVSLWCLVKGFYPSDIAVEWESNGQPENNYKTTPPVLDSDGSFFLYSKLTVDKSRWQQGNVFSCSVMHEALHNHYTQKSLSLSPGK
light: B1 light
notes: structure 1 isotype control; CH2 FES
B4: M1IC-SG2 (bispecific antibody)
chain: not shown
heavy: B1 heavy with C230S
light: B1 light
notes: structure 1 isotype control; CH2 SG2CH2
B5: M1IC-DG2 (bispecific antibody)
chain: not shown
heavy: B1 heavy with D265A
light: B1 light
notes: structure 1 isotype control; CH2 DG2CH2
B6: M1IC-PG2 (bispecific antibody)
chain: not shown
heavy: B1 heavy with C230P
light: B1 light
notes: structure 1 isotype control; CH2 PG2CH2
B7: M1IC-NA (bispecific antibody)
chain: not shown
heavy: B3 heavy with F235L, E236L, N298A, S332P
light: B1 light
notes: structure 1 isotype control; CH2 N297A
B8: M1IC-G2D (bispecific antibody)
chain: not shown
heavy: B1 heavy with D270A
light: B1 light
notes: structure 1 isotype control; CH2 G2DCH2
B9: M1IC-AG2 (bispecific antibody)
chain: not shown
heavy: B1 heavy with C230A
light: B1 light
notes: structure 1 isotype control; CH2 AG2CH2
B10: M1IC-DG2D (bispecific antibody)
chain: not shown
heavy: B1 heavy with D265A, D270A
light: B1 light
notes: structure 1 isotype control; CH2 DG2DCH2; also called MlIC-DG2D
B11: M1IC-AAG (bispecific antibody)
chain: not shown
heavy: not shown
light: B1 light
notes: structure 1 isotype control; CH2 AAG
B12: M1IC-GG2 (bispecific antibody)
chain: not shown
heavy: B1 heavy with C230G
light: B1 light
notes: structure 1 isotype control; CH2 GG2CH2

Target: T1, Monkey CD3 (monkey)
T1 construct: whole, on cells; also called CD3 of monkey CD3 positive T cells
Test: flow cytometry, monkey T cells

Row | Binder | EC50
1 | B1 | 10.4 nM
2 | B2 | 19.8 nM
3 | B3 | 11.4 nM
4 | B4 | 13.2 nM
5 | B5 | 14.5 nM
6 | B6 | 17.8 nM
7 | B7 | 9.63 nM
8 | B8 | 10.6 nM
9 | B9 | 14.2 nM
10 | B10 | 16 nM
11 | B11 | 8.79 nM
12 | B12 | 13 nM
